System: Arabidopsis
Assay: Ribo-seq and RNA-seq global translatome profiling (translational efficiency TE, mORF/uORF ribo-shift) upon elf18 treatment
Format: in vivo
Design: key to score (Ribo-shift): Up: ribo-shift up (i.e., increased mORF/uORF ratio); Down: ribo-shift down (i.e., decreased mORF/uORF ratio)
Details: shift of mORF/uORF ratio, elf18 vs Mock; per uORF

Molecule	score (Ribo-shift)
AT5G49980.1_1: uORF of AT5G49980.1; peptide SEQ ID NO: 36 (nucleic acid, listed as DNA, chemistry not fully specified) DNA: ATGGAGACGAAGTGGAGAGAGAAAGCTCCCACTCTCTCACACCCCAAAGCTTCTTCTTCTTCTTCCTCTTCTTCCTCTTCCTCTTCTCTAATCTGA	Down
AT5G15950.1_1: uORF of AT5G15950.1; peptide SEQ ID NO: 35 (nucleic acid) DNA: ATGATGGAATCGAAAGCTGGTAATAAGAAGTCAAGCAGCAATAGTTCCTTATGTTACGAAGCACCCCTTGGTTACAGCATTGAAGACGTTCGTCCTTTCGGTGGAATCAAGAAATTCAAATCTTCTGTCTACTCCAACTGCGCTAAGAGGCCTTCCTGA	Down
AT4G24750.1_1: uORF of AT4G24750.1; peptide SEQ ID NO: 26 (nucleic acid, listed as DNA, chemistry not fully specified) DNA: ATGAAGCCAAAACTATCCAATAACTCGAAATTGACTACTCTTTTCTTTTGTCTCTGTTGTTGA	Down

Same assay, conditions: translational efficiency fold change, elf18 vs Mock; listed as shows 5′ UTR of the transcript

Molecule	score (TE change)
AT4G34460.1: 5′ UTR of transcript; GTP binding protein beta 1 (nucleic acid) DNA: GACCCTCTTCTCTCTCTCTAGCTAGTCTCAGGTCAGAGAAGCCATCATCAACATTCAACAAGAGAGCCGTGTTTGTGTCTTGACTGATTCTTCTCTCAAGCTTTTTTAATCTCTCTCTCTTTTCCCACGTAATTCCCCCAAATCCATTCTTTCTAGGGTTCGATCTCCCTCTCTCAATCATGAACCTTCTTCTCTTCTAGACCCCACAAAGTTTCCCCCTTTTATTTGATCGGCGACGGAGAAGCCTAAGTCTGATCCCGGA	TEdown (389 genes displayed decreased TEfc (|z|≥1.5))
AT5G49980.1: 5′ UTR of transcript; auxin F-box protein 5 (nucleic acid) DNA: AAAAAATAATCCCCAAATAATGGAGACGAAGTGGAGAGAGAAAGCTCCCACTCTCTCACACCCCAAAGCTTCTTCTTCTTCTTCCTCTTCTTCCTCTTCCTCTTCTCTAATCTGAATCCAAAGCCTCTCTCTTT	TEdown (389 genes displayed decreased TEfc (|z|≥1.5))
AT5G15950.1: 5′ UTR of transcript; Adenosylmethionine decarboxylase family protein (nucleic acid) DNA: ACAATATCACAAACTCGTTTGCTCTTTTCATCATTACTAAATCATAAGCGGCTCTCAAGTTCTTTAGGGTTTCGAGTTTTCTCAATCTCCTACCTGATTAAGGTTAATTTCTTATCTTGGATCAATAACAAGAGAATTATAACTCCGGATTGTAATCAATATTCCTCTACATAAAAAGCGTGAATGAGATTATGATGGAATCGAAAGCTGGTAATAAGAAGTCAAGCAGCAATAGTTCCTTATGTTACGAAGCACCCCTTGGTTACAGCATTGAAGACGTTCGTCCTTTCGGTGGAATCAAGAAATTCAAATCTTCTGTCTACTCCAACTGCGCTAAGAGGCCTTCCTGAGTACTAGCCAGTTCCCTCCATAGCTTTTCAATTACAACAATCTCCTTTTCTCAAAGCTCTGGTTCCCCAAATCCTCTCGTCTTTTGTTTGCCCTCACAACAACAACAACAACGCAGAG	TEdown (389 genes displayed decreased TEfc (|z|≥1.5))
AT5G14930.1: 5′ UTR of transcript; senescence-associated gene 101 (nucleic acid, listed as DNA, chemistry not fully specified) DNA: TATGGACTCTCGTTCTCAGACATTTATTTCTCTCAGTCTTACAATATAAATTTTCATTCTTACCATCCATAATTTTGTATTGTCTTCTCCACAGATCTATTCCAGCTCACGCC	TEdown (389 genes displayed decreased TEfc (|z|≥1.5))
AT4G32800.1: 5′ UTR of transcript; Integrase-type DNA-binding superfamily protein (nucleic acid) DNA: ATTTCATAAATCATAGAGAGAGAGAGAGAGAGAGAGAGAGAGTTTGGAAACATTCCAAAACCAGAACTCGATATTATTTCACCAAAGAATGATAGAAACAAGAACTATCTTTTTATAAAACTCTTTACACCCCAAAAGAAAATGTCTCACTCGTTTTGCCTTATAATATTTCTTTCAACAACAACCCAAATCTACAAAAAATCCCAATAAAAAAAAACTTCAGTCTGTTTGACATTTTGTCGAACACTTGGACGGCATCACAAAAAGCTCTAAACTTTCTGACTACCA	TEdown (389 genes displayed decreased TEfc (|z|≥1.5))
AT4G32660.1: 5′ UTR of transcript; Protein kinase superfamily protein (nucleic acid) DNA: AATTGGTGGATGTCGTCGCGGTTCGACCCCAAGGGATTTGGCCGGTAAAATTATTGGGAGTTGTCTTTCTCTTGCACTCTCTCTAGTTCCAAACCCTAGCAATTCCTCTGTTTTCACCATTTTCGGAGATTATCACCTTCTCCCCGATTCGCCGCCTTGTGATTACATCTACGTAAAGAGTTTCTGGTAGAAATTTTCCCTCTTTTAGCTGCAGATTGGCATCAGATTCCGTTCTGGATGTGTCGGTGATCGATTTTCCGCGTCGGTG	TEup (448 had increased TEfc)
AT5G11790.1: 5′ UTR of transcript; N-MYC downregulated-like 2 (nucleic acid) DNA: AAACACAAAAAAACGAAGATAGCCATCGTTTTGGTGAGAGAAGAGAGAAGAGAGAAGAAGAAGGCCATGGAAAGATAATACTCTGCTTTTTTTTTAGAAATATACAGAGGAAATAAAGAGAGAGAGAAGGAG	TEdown (389 genes displayed decreased TEfc (|z|≥1.5))
AT4G24750.1: 5′ UTR of transcript; Rhodanese/Cell cycle control phosphatase superfamily protein (nucleic acid) DNA: GAGTCTGGTTCGAAAAGACTGCTTCAATGAAGCCAAAACTATCCAATAACTCGAAATTGACTACTCTTTTCTTTTGTCTCTGTTGTTGATTCGCAAAGGCGAAGATTATCCATCTTCTCAGTTACTCCTACTGGAACCAAAAGCTCAGAACCTTAAAAC	TEdown (389 genes displayed decreased TEfc (|z|≥1.5))
AT5G57460.1: 5′ UTR of transcript (nucleic acid) DNA: GAAGATCTCATTTCTCTTTCTCCTTTTCTTCTCCGACGATTCTTCTCAGTTCTCAGATCTGATCGATTTCTTCATCAGATGTTTCAATCTAACCATTGAGATTGAATAGTCACCATTAGTAGAAGCTTCGAGATCAATTTCGAATCGGGATC	TEup (448 had increased TEfc)
AT4G38950.1: 5′ UTR of transcript; ATP binding microtubule motor family protein (nucleic acid) DNA: AAGAACAAACAACTACCAAACTTGTAGGCAGTAGCAGGAGGAAGTGGGTGGGATTAACATTGTCATTTCTCTCTCTTTTTCTTTTACAAATCTTTCCGTTTTGTTTTCTTTTGGTTTTCCGGTGAGCACTGTTGTGTTTCCAATTCCGGCACTCTTTAGGGTTCCCTTTCAGAAGAAAACTTCACATTGTTGTTTCTCTCAACCGTGACATCTTGGATTACTACTTCTGACTACTTTCCTTTTTCATGTGCCCCAAAAGATAATAGTTACTTTTTCAAAATCTGGTTTTGTTGTTTGGGTTTGTGTCATTCATTGATAAAGTCACTAATGGAGAAGTACAAAACAATTGCAAAATTTCGAATCTGTGTTGTCATTGCTGAATTCTGTAGTGGATGTTTGCTTGCAGTTTAGAGCTTCGGAGTGCGAAGAGTGAGACACAAGAGGATTCTTTCTGGAACCGCATTATTCCCTTTAGAGGAGGAAGAAGAAGACAACTCACTCACAAGGAAAACAAAGGTTCCTCTGGTTACTCTGAAATATTCAAACCAATGGTGAGCAATTGGTAGCACTTGCTAAAGAAG	TEdown (389 genes displayed decreased TEfc (|z|≥1.5))
AT1G19270.1: 5′ UTR of transcript; DA1 (nucleic acid) DNA: CGTGGGGAACGTTTTTTCCTGGAAGAAGAAGAAGAAGAGCTCAACAAGCTCAACGACCAAAAAACTTCGGACACGAAGACTTTTTAATTCATTTCTCCTCTTTTGTTTTTTTCGTTCCAAAATATTCGATACTCTCGATCTCTTCTTCGTGATCCTCATTAAATAAAAATACGATTTTTATTCTTTTTTTGTGAGTGCACCAAATTTTTTGACTTTGGATTAGCGTAGAATTCAAGCACATTCTGGGTTTATTCGTGTATGAGTAGACATTGATTTTGTCAAAGTTGCATTCTTTTATATAAAAAAAGTTTAATTTCCTTTTTTCTTTTCTTTTCTCTTTTTTTTTTTTTTCCCCCATGTTATAGATTCTTCCCCAAATTTTGAAGAAAGGAGAGAACTAAAGAGTCCTTTTTGAGATTCTTTTGCTGCTTCCCTTGCTTGATTAGATCATTTTTGTGATTCTGGATTTTGTGGGGGTTTCGTGAAGCTTATTGGGATCTTATCTGATTCAGGATTTTCTCAAGGCTGCATTGCCGTATGAGCAGATAGTTTTATTTAGGCATT	TEdown (389 genes displayed decreased TEfc (|z|≥1.5))
AT4G26080.1: 5′ UTR of transcript; Protein phosphatase 2C family protein (nucleic acid) DNA: GAAGCAATTGTTGCATTAGCCTACCCATTTCCTCCTTCTTTCTCTCTTCTATCTGTGAACAAGGCACATTAGAACTCTTCTTTTCAACTTTTTTAGGTGTATATAGATGAATCTAGAAATAGTTTTATAGTTGGAAATTAATTGAAGAGAGAGAGATATTACTACACCAATCTTTTCAAGAGGTCCTAACGAATTACCCACAATCCAGGAAACCCTTATTGAAATTCAATTCATTTCTTTCTTTCTGTGTTTGTGATTTTCCCGGGAAATATTTTTGGGTATATGTCTCTCTGTTTTTGCTTTCCTTTTTCATAGGAGTCATGTGTTTCTTCTTGTCTTCCTAGCTTCTTCTAATAAAGTCCTTCTCTTGTGAAAATCTCTCGAATTTTCATTTTTGTTCCATTGGAGCTATCTTATAGATCACAACCAGAGAAAAAGATCAAATCTTTACCGTTA	TEdown (389 genes displayed decreased TEfc (|z|≥1.5))
AT4G37925.1: 5′ UTR of transcript; subunit NDH-M of NAD(P)H:plastoquinone dehydrogenase complex (nucleic acid, listed as DNA, chemistry not fully specified, 5′ UTR of transcript; subunit NDH-M of NAD(P)H:plastoquinone dehydrogenase complex) DNA: ATGGTTCTGTAACCGGACAACATCTCAAAACTTGTTCTGTTTTTTTTTTTTCATTTCTTAGACAGAAAA	TEup (448 had increased TEfc)

Reference: patent US20190352664A1, “COMPOSITIONS AND METHODS FOR CONTROLLING GENE EXPRESSION” (priority 2017, published 2019)
